Experimental data reported in IntAct's records for PubMed 28533415.

B1: Vacuolar protein 8 (Saccharomyces cerevisiae), P39968 (parent)
chain: MGSCCSCLKDSSDEASVSPIADNEREAVTLLLGYLEDKDQLDFYSGGPLKALTTLVYSDNLNLQRSAALAFAEITEKYVRQVSREVLEPILILLQSQDPQIQVAACAALGNLAVNNENKLLIVEMGGLEPLINQMMGDNVEVQCNAVGCITNLATRDDNKHKIATSGALIPLTKLAKSKHIRVQRNATGALLNMTHSEENRKELVNAGAVPVLVSLLSSTDPDVQYYCTTALSNIAVDEANRKKLAQTEPRLVSKLVSLMDSPSSRVKCQATLALRNLASDTSYQLEIVRAGGLPHLVKLIQSDSIPLVLASVACIRNISIHPLNEGLIVDAGFLKPLVRLLDYKDSEEIQCHAVSTLRNLAASSEKNRKEFFESGAVEKCKELALDSPVSVQSEISACFAILALADVSKLDLLEANILDALIPMTFSQNQEVSGNAAAALANLCSRVNNYTKIIEAWDRPNEGIRGFLIRFLKSDYATFEHIALWTILQLLESHNDKVEDLVKNDDDIINGVRKMADVTFERLQRSGIDVKNPGSNNNPSSNDNNSNNNDTGSEHQPVEDASLELYNITQQILQFLH
partner: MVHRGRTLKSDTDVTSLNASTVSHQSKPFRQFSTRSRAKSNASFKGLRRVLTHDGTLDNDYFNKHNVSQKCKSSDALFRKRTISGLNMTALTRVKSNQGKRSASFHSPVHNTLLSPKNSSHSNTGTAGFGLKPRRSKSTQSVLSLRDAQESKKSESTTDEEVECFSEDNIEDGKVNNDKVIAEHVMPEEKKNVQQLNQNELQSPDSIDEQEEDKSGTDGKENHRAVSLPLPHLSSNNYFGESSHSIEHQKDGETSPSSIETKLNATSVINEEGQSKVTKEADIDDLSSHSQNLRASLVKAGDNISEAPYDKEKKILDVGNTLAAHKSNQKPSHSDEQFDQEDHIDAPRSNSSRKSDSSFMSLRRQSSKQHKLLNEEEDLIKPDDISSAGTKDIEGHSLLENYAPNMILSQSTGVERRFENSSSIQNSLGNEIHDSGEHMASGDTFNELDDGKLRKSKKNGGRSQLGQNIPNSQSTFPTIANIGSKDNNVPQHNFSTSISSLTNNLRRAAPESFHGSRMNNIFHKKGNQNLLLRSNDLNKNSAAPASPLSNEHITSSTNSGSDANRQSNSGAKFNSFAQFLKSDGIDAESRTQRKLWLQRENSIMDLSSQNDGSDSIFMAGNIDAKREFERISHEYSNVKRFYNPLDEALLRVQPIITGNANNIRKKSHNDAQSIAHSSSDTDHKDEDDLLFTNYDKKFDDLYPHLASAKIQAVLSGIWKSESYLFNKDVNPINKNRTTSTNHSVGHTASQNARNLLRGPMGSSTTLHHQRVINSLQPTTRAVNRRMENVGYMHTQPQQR
B2: Vacuolar protein 8 (Saccharomyces cerevisiae), P39968 (parent)
chain: B1 chain
partner: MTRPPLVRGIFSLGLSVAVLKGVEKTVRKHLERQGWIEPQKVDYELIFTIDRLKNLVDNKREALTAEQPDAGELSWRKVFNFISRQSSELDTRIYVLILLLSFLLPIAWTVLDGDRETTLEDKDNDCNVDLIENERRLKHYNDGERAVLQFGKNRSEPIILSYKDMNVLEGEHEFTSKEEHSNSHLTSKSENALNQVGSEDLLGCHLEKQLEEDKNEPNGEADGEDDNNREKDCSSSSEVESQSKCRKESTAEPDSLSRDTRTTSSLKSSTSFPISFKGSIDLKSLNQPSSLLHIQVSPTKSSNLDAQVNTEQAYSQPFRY
B3: Vacuolar protein 8 (Saccharomyces cerevisiae), P39968 (parent)
chain: B1 chain
partner: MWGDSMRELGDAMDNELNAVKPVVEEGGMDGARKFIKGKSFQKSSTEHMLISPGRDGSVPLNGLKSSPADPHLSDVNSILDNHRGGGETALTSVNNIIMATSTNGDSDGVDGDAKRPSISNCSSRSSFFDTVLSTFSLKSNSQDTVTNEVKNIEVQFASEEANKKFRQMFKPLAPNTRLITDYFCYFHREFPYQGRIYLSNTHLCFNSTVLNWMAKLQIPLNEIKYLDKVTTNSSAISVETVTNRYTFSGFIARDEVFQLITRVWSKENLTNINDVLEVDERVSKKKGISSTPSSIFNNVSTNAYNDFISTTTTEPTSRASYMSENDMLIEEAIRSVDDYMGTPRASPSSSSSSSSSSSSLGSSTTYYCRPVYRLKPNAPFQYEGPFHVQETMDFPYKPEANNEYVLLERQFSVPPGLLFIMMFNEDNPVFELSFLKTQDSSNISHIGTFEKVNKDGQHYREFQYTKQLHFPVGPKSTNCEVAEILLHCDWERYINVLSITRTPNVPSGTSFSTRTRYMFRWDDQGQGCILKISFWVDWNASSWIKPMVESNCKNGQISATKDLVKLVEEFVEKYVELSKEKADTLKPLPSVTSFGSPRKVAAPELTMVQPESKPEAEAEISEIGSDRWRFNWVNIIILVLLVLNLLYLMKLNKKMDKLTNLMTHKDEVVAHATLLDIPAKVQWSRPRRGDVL
B4: Nucleus-vacuole junction protein 1 (Saccharomyces cerevisiae), P38881 (parent)
chain: B2 partner
partner: B1 chain
B5: Vacuolar protein 8 (Saccharomyces cerevisiae), P39968 (parent)
chain: B1 chain
partner: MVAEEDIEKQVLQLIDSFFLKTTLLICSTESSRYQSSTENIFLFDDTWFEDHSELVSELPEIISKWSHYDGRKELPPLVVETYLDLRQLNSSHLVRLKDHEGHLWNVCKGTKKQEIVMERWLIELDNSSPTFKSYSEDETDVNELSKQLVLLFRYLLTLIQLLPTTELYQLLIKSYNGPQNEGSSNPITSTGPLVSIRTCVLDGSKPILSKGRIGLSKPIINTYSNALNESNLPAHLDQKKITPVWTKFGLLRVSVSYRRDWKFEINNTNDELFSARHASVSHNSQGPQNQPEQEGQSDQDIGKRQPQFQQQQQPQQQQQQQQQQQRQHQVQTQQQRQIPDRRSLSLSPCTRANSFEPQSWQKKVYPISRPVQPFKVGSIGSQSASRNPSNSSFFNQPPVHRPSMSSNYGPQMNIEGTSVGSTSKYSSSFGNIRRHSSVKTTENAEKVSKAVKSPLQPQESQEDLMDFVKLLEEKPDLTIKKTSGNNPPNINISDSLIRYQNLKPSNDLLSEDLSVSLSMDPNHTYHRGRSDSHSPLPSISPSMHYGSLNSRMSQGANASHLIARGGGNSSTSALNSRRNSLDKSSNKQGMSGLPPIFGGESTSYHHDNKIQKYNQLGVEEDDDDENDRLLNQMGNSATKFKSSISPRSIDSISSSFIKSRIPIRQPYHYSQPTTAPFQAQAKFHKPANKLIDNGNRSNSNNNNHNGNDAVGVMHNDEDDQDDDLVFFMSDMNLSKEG
B6: Vacuolar protein 8 (Saccharomyces cerevisiae), P39968 (parent)
chain: B1 chain
partner: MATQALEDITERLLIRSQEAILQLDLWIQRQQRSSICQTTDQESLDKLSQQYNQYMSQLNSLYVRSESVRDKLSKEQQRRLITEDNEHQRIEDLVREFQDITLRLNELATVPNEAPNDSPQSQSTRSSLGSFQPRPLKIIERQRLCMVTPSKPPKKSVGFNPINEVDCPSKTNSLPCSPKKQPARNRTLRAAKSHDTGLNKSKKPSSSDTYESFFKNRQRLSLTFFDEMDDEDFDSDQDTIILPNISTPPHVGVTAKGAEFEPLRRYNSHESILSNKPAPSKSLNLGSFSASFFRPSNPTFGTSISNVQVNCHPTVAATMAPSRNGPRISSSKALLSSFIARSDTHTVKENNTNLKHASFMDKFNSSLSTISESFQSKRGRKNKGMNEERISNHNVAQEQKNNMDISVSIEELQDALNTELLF

Variants of: B1
Conditions: with tco89_yeast TCO89, Q08921

Q: Which “effect of a mutation on the interaction” value does the source give for R276E;R317E;R359E here?
A: with no effect

Variants of: B2
Conditions: with nvj1_yeast NVJ1, P38881

Q: For L55R, which “effect of a mutation on the interaction” value is on record?
A: disrupting interaction strength

Q: Which “effect of a mutation on the interaction” value does the source give for A51R here?
A: disrupting interaction strength

Variants of: B2
Conditions: with nvj1_yeast NVJ1, P38881
Remark: another data set of the same source

Q: R276E;R317E;R359E was tested. Which “effect of a mutation on the interaction” value did it give?
A: disrupting interaction strength

Variants of: B3
Conditions: with lam6_yeast LAM6, Q08001

Q: R276E;R317E;R359E was tested. Which “effect of a mutation on the interaction” value did it give?
A: with no effect

Variants of: B4
Conditions: with vac8_yeast VAC8, P39968

Q: For I295R;A307R;F319E, which “effect of a mutation on the interaction” value is on record?
A: disrupting interaction strength

Q: F319E was tested. Which “effect of a mutation on the interaction” value did it give?
A: disrupting interaction strength

Q: For I295R, which “effect of a mutation on the interaction” value is on record?
A: decreasing interaction strength

Q: Which “effect of a mutation on the interaction” value does the source give for S303A here?
A: with no effect

Q: Which “effect of a mutation on the interaction” value does the source give for A307R here?
A: decreasing interaction strength

Q: With K301E as the variant, how does the “effect of a mutation on the interaction” value read?
A: decreasing interaction strength

Q: Which “effect of a mutation on the interaction” value does the source give for P299S here?
A: with no effect

Variants of: B5
Conditions: with atg13_yeast ATG13, Q06628

Q: R276E;R317E;R359E was tested. Which “effect of a mutation on the interaction” value did it give?
A: disrupting interaction strength

Variants of: B6
Conditions: with vac17_yeast VAC17, P25591

Q: How did the “effect of a mutation on the interaction” value turn out when R276E;R317E;R359E was run?
A: with no effect
